The record followed here is publication PMC6692507.

Experiment [1] addresses uL23(52pBpa), in 70S ribosomes, RNCs or living cells (E. coli) (UniProt P0ADZ0). Put plainly: cross-linking; competition: SecA (2.5 uM) premixed with Ffh/SRP (0.5, 2.5, 12.5 uM) in buffer C, 10 min 30°C with 0.5 uM 70S ribosomes bearing pBpa at position 71 or 52 of uL23, UV 20 min on ice; anti-SecA and anti-Ffh blots.
In experiment [2] the target is uL23(71pBpa), in 70S ribosomes, RNCs or living cells (E. coli) (UniProt P0ADZ0). The description is as above.

Turning to “Ffh, the protein component of the bacterial signal recognition particle (SRP), purified (from UniProt P0AGD7 1-453) (natural protein)”, the reduction of the SecA-uL23 cross-linking product with SRP equimolar to SecA in experiment [1] and in experiment [2] was 50% each time.
